Columns and labels:
Test in all cases: SEC
[1] = molecular target: CckA (WT, N-terminal His-tag in place of its transmembrane helices) (Caulobacter crescentus) (UniProt Q9X688)
[2] = molecular target: CckA ΔPAS-A (Caulobacter crescentus)
[3] = molecular target: CckA ΔPAS-A ΔRD (Caulobacter crescentus)
[4] = molecular target: CckA ΔPAS-A-B ΔRD (Caulobacter crescentus)

Substance “CckA (WT, N-terminal His-tag in place of its transmembrane helices) (from UniProt Q9X688 1-691) (enzyme)” has a stoichiometry N (CckA per complex) [1] of 4.
Substance CckA ΔPAS-A (domain or fragment) has a stoichiometry N (CckA per complex) [2] of 3.1.
Work on CckA ΔPAS-A ΔRD (domain or fragment) yielded a stoichiometry N (CckA per complex) [3] of 2.
Substance CckA ΔPAS-A-B ΔRD (domain or fragment) has a stoichiometry N (CckA per complex) [4] of 2.

Source: doi:10.1101/323444
